We go through two substances from paper PMC3294146.

Assay [1] concerns the target Co-hArgI-C^PEG-20K (hArgI-C conjugated at the N-terminal Cys to 20 KDa PEG-maleimide) (human). Briefly: SEC. (In general: Size exclusion chromatography separates by hydrodynamic size, large species first.)
The target of assay [2] is human Arginase I with an engineered N-terminal Cys residue (hArgI-C), not PEGylated (human). Briefly: SEC.

The term stoichiometry N denotes the number of molecules, sites or subunits per partner or assembly. For the substance “Co-hArgI-C^PEG-20K (hArgI-C conjugated at the N-terminal Cys to 20 KDa PEG-maleimide) (enzyme)”, in assay [1], the stoichiometry N stood at 3.
In assay [2], “human Arginase I with an engineered N-terminal Cys residue (hArgI-C), not PEGylated (enzyme)” yielded a percent dimeric of 10% and a percent monomeric of 90%.
